Results as given in publication PMC10646984 (Biomacromolecules, 2023).

B1: Recombinant human galectin-8 (Gal-8) with a full-length peptide linker of 34 aa, N-terminal His-tagged (natural protein, UniProt O00214 1-317, looked up)
chain: MMLSLNNLQNIIYNPVIPFVGTIPDQLDPGTLIVIRGHVPSDADRFQVDLQNGSSMKPRADVAFHFNPRFKRAGCIVCNTLINEKWGREEITYDTPFKREKSFEIVIMVLKDKFQVAVNGKHTLLYGHRIGPEKIDTLGIYGKVNIHSIGFSFSSDLQSTQASSLELTEISRENVPKSGTPQLRLPFAARLNTPMGPGRTVVVKGEVNANAKSFNVDLLAGKSKDIALHLNPRLNIKAFVRNSFLQESWGEEERNITSFPFSPGMYFEMIIYCDVREFKVAVNGVHSLEYKHRFKELSSIDTLEINGDIHLLEVRSW
notes: galectin-8 (tandem repeat), human; contains a full-length peptide linker of 34 aa (3717 Da); ca. 36 kDa; cloned in pET-Duet1 (AscI/NotI); plasmid a gift from Prof; L. Elling; source: E. coli Rosetta 2(DE3)pLysS, purified (Ni-NTA); not shown: His tag, N-terminal, kept

Legend:
Gal-8 [1] = target: T1, Gal-8 (Homo sapiens, UniProt O00214); experiment: competitive ELISA with immobilized asialofetuin (ASF), Gal-8; format: binding; details: 1 μM Gal-8, immobilized ASF, DMSO co-solvent
T1 construct: made in house; host or cells: Escherichia coli Rosetta 2(DE3)pLysS
T1 sequence (O00214 1-317): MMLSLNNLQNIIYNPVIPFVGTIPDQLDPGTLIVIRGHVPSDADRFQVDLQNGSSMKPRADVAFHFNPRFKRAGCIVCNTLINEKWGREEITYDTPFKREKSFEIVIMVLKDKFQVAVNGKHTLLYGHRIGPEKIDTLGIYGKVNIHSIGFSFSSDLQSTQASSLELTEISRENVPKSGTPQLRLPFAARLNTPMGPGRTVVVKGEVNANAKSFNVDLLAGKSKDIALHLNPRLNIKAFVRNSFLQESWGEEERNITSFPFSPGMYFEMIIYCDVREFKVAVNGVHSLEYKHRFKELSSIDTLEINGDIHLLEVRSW
Experimental: (§1) The inhibitory potential of prepared Lac-CS-DDMs toward Gal-1, Gal-3, Gal-8, and Gal-9 was determined using a competitive ELISA assay with immobilized asialofetuin (ASF; a glycoprotein terminated with LacNAc moieties).[41] ASF (0.1 μM in PBS, 50 μL/well) was coated in microtiter plates (Nunc Immuno Sorb, Thermo Fisher Scientific, USA) and incubated overnight. Then, the wells were washed with 3 × 250 μL of PBS buffer containing 0.05% Tween; this washing step followed each incubation step. The wells were then blocked with 2 mg/mL BSA in PBS buffer (250 μL/well) and incubated for 1 h. […] The reaction was stopped by adding 3 M HCl (50 μL per well), accompanied by a color shift to yellow as determined spectrophotometrically by an absorbance microplate reader (Sunrise Tecan Group Ltd., CH). […] A background value, as a mean of the negative control wells containing buffer instead of galectin/ligand, with an absorbance of ca. 0.05–0.075 was subtracted from the measured absorbances. The values of half maximal inhibitory constants (IC50) were calculated from the non-linear regression (dose–response inhibition-variable slope) of the sigmoidal curves using GraphPad Prism 7 (GraphPad Software, USA) from at least three independent experiments with at least two different galectin batches. […]

Gal-9 [2] = target: T2, Gal-9 (Homo sapiens, UniProt O00182, A222P/DEL149-219); experiment: competitive ELISA with immobilized asialofetuin (ASF), Gal-9; format: binding; details: 1 μM Gal-9, immobilized ASF, DMSO co-solvent
T2 construct: made in house; host or cells: Escherichia coli Rosetta 2(DE3)pLysS
T2 sequence (O00182 with tags, fused parts or gaps DEL149-219/A222P): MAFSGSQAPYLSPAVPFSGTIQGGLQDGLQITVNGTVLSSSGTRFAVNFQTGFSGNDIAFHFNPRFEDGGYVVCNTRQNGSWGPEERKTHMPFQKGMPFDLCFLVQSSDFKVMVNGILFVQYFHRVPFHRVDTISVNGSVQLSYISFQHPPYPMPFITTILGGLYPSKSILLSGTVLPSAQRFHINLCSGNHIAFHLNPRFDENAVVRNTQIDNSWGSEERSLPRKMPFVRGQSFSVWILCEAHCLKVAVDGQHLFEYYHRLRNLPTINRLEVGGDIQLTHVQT
Experimental: as §1

Gal-1 = target: T3, Gal-1 (Homo sapiens, UniProt P09382, C3S); experiment: direct binding ELISA of galectin to immobilized ASF, Gal-1
T3 construct: made in house; host or cells: Escherichia coli Rosetta 2(DE3)pLysS
T3 sequence (P09382 whole entry C3S): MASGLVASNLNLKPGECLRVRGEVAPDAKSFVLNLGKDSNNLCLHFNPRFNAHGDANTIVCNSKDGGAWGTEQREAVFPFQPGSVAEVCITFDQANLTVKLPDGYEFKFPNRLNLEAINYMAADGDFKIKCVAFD

Gal-3 = target: T4, Gal-3 (Homo sapiens, UniProt P17931); experiment: direct binding ELISA of galectin to immobilized ASF, Gal-3
T4 construct: made in house; host or cells: Escherichia coli Rosetta 2(DE3)pLysS
T4 sequence (P17931 whole entry): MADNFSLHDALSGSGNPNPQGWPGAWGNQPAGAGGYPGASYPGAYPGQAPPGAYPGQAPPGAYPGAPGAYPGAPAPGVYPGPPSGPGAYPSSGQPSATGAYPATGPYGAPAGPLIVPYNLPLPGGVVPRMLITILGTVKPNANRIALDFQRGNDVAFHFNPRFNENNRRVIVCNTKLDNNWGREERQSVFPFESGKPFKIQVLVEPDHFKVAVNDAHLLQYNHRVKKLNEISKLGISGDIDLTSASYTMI

Gal-8 [3] = target: T1, Gal-8; experiment: direct binding ELISA of galectin to immobilized ASF, Gal-8
Gal-9 [4] = target: T2, Gal-9; experiment: direct binding ELISA of galectin to immobilized ASF, Gal-9
[5] = DLS hydrodynamic diameter of single components (galectins, Lac-CS-DDMs); format: physicochemical; details: single component 10 μM in PBS, 25 °C
Experimental: The hydrodynamic diameter of the nanoparticles of galectins, Lac-CS-DDMs, and their aggregates was measured by dynamic light scattering (DLS) using a Zetasizer Nano ZS (Malvern Instruments Ltd., UK) at 25 °C in Malvern disposable plastic microcuvettes (100 μL sample volume). The light scattered at 173° from the incident light was fitted to an autocorrelation function using the method of cumulants (Malvern Instruments Ltd., UK). Commercial sterile PBS was used for sample preparation. […] Mixtures of components were incubated for 90 min at room temperature. The samples were vortexed prior to measurements. The hydrodynamic diameters were determined from five independent repetitions (each 10–50 runs). Multimodal intensity-weighted particle size distribution was used for data analysis.
DLS experiments on the A series of Lac-CS-DDMs and G3-B-AcLac32 were performed to provide insight into the complexity of multivalent galectin/Lac-CS-DDM interactions (Table 2). Unlike ELISA assays that simulate competitive binding on the cell surface, DLS is a straightforward method to evaluate non-surface bound multivalent assemblies.[71] Thus, it is interesting to relate the data obtained by these two methods. Since the transformation of intensity-weighted size distribution to volume-weighted size distribution requires information on the refractive index and absorption of the formed particles and assumes their homogeneity and spherical shape,[72] all presented data come from the analysis of the multimodal intensity-weighted size distribution. As the scattering intensity correlates with the particle diameter to the sixth power, whereas the mass only to the third power, the abundance of larger particles is overestimated at the expense of the smaller ones with respect to the real sample composition, especially in the case of polydisperse samples with multiple size populations.[73] This means that, due to the presence of large aggregates, the particles smaller by orders of magnitude present in the sample may not be detected. Despite the above bottlenecks, we believe that using the size-to-intensity plot is the most appropriate as it is highly sensitive to a starting aggregation, which may be undetectable in the size-to-volume distribution, and it is well suited to compare results between different galectins and Lac-CS-DDM generations to address general differences and trends in their aggregation behavior.

[6] = target: asialofetuin (ASF; a glycoprotein terminated with LacNAc moieties) (UniProt P12763); experiment: ELISA; direct binding: ASF (0.1 μM in PBS) coated on the plate, serial dilution of the galectin in EPBS (2 mM EDTA in PBS), bound galectin detected with anti-His antibody-HRP
[7] = target: T5, asialofetuin (ASF; a glycoprotein terminated with LacNAc moieties) (UniProt P12763 19-359, glycoprotein terminated with LacNAc moieties (desialylated glycans)); experiment: as above; details: both partners purified
T5 construct: asialofetuin, the desialylated form of fetuin
T5 sequence (looked up): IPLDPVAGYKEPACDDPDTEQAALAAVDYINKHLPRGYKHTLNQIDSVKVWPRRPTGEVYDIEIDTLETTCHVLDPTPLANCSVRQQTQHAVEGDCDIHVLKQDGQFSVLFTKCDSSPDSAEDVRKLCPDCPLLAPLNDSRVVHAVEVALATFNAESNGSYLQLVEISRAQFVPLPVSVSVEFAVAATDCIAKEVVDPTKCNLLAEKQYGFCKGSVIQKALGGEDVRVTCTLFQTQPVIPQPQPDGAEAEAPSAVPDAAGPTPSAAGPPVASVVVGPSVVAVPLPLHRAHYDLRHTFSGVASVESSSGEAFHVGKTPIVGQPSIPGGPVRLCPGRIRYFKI

Molecule | PI (polydispersity index) [5] | hydrodynamic diameter, aggregates >0.5 μm [5] [μm] | hydrodynamic diameter, small particles <50 nm (first fraction) [5] [nm] | intensity-weighted abundance, aggregates >0.5 μm [5] [%] | intensity-weighted abundance, small particles <50 nm (first fraction) [5] [%] | further results
OC[C@H]1O[C@@H](O[C@H]2[C@H](O)[C@@H](O)C(O)O[C@@H]2CO)[C@H](O)[C@@H](O)[C@H]1O (mixture of isomers) [lactose] | – | – | – | – | – | IC50 (Gal-8 [1]): 1680 ± 420 µM; IC50 (Gal-9 [2]): 1350 ± 440 µM
ASF: asialofetuin, a glycoprotein terminated with LacNAc moieties, immobilized competitor in ELISA | – | – | – | – | – | Kd (Gal-1): 4.4 µM; Kd (Gal-3): 3.2 µM; Kd (Gal-8 [3]): 0.37 µM; Kd (Gal-9 [4]): 0.3 µM
Gal-1: recombinant human galectin-1, N-terminal His-tagged, C2S mutation | 0.4 | 1.2 ± 0.5 | 1.3 ± 0.1 | 32 | 47 | hydrodynamic diameter, small particles <50 nm (second fraction) [5]: 19.0 ± 6.0 nm; intensity-weighted abundance, small particles <50 nm (second fraction) [5]: 21%
Gal-3: recombinant human galectin-3, N-terminal His-tagged | 0.6 | 1.1 ± 0.1 | 7.9 ± 1.4 | 13 | 36 | hydrodynamic diameter, aggregates >0.1 μm [5]: 0.4 ± 0.1 μm; intensity-weighted abundance, aggregates >0.1 μm [5]: 40%
Gal-8: recombinant human galectin-8, N-terminal His-tagged, full-length peptide linker of 34 aa | 0.7 | 1.4 ± 0.3 | 5.4 ± 0.5 | 80 | 20 | –
Recombinant human galectin-1 (Gal-1) with mutation C2S, N-terminal His-tagged (natural protein) | – | – | – | – | – | Kd [6]: 4.4 µM
Recombinant human galectin-9 (Gal-9) with a truncated mutated peptide linker HPPYPMPF, N-terminal His-tagged (natural protein) | – | – | – | – | – | Kd [6]: 0.3 µM
B1 | – | – | – | – | – | Kd [7]: 0.37 µM
